In patent US20220090138A1:

Experiments:
[1] = molecular target: … (EBV LMP2A) presented by HLA-A*0201 (human); assay: cell-based or functional assay
[2] = molecular target: … (HCMV pp65) presented by HLA-A*0201 (human); assay: cell-based or functional assay

Substance: TCR recognizing … presented by A*0201 (PDB #3REV)
- in vitro T cell activation assay (luciferase); targeting cassette design A [1]: 6.1
- in vitro T cell activation assay (luciferase); targeting cassette design B [1]: 6.3
- in vitro T cell activation assay (luciferase); targeting cassette design C [1]: 7.6
- in vitro T cell activation assay (luciferase); targeting cassette design D [1]: 7
- in vitro T cell activation assay (luciferase); targeting cassette design E [1]: 5.9
- in vitro T cell activation assay (luciferase); targeting cassette design F [1]: 3.7
- in vitro T cell activation assay (luciferase); targeting cassette design G [1]: 7.6
- in vitro T cell activation assay (luciferase); targeting cassette design H [1]: 5.4
- in vitro T cell activation assay (luciferase); targeting cassette design I [1]: 6.2
- in vitro T cell activation assay (luciferase); targeting cassette design J [1]: 6.4
- induction of luciferase, in vitro T cell activation assay; short cassette AAY [1]: 11.3
- luciferase induction, in vitro T cell activation assay; short cassette 9AA (relative to uninfected controls) [1]: 12
- luciferase induction, in vitro T cell activation assay; short cassette 17AA (relative to uninfected controls) [1]: 10.3
- luciferase induction, in vitro T cell activation assay; short cassette 25AA (relative to uninfected controls) [1]: 14.6
- luciferase induction, in vitro T cell activation assay; short cassette AAY (relative to uninfected controls) [1]: 11.3
- luciferase induction, in vitro T cell activation assay; short cassette RR (relative to uninfected controls) [1]: 8.5

Substance: TCR recognizing … presented by A*0201 (PDB #5D2N)
- in vitro T cell activation assay (luciferase); targeting cassette design A [2]: 32.5
- in vitro T cell activation assay (luciferase); targeting cassette design B [2]: 31.8
- in vitro T cell activation assay (luciferase); targeting cassette design C [2]: 29.1
- in vitro T cell activation assay (luciferase); targeting cassette design D [2]: 29.1
- in vitro T cell activation assay (luciferase); targeting cassette design E [2]: 28.4
- in vitro T cell activation assay (luciferase); targeting cassette design F [2]: 20.4
- in vitro T cell activation assay (luciferase); targeting cassette design G [2]: 35
- in vitro T cell activation assay (luciferase); targeting cassette design H [2]: 30.3
- in vitro T cell activation assay (luciferase); targeting cassette design I [2]: 22.5
- in vitro T cell activation assay (luciferase); targeting cassette design J [2]: 38.1
- induction of luciferase, in vitro T cell activation assay; short cassette AAY [2]: 24.5
- luciferase induction, in vitro T cell activation assay; short cassette 9AA (relative to uninfected controls) [2]: 33.6
- luciferase induction, in vitro T cell activation assay; short cassette 17AA (relative to uninfected controls) [2]: 42.8
- luciferase induction, in vitro T cell activation assay; short cassette 25AA (relative to uninfected controls) [2]: 42.3
- luciferase induction, in vitro T cell activation assay; short cassette AAY (relative to uninfected controls) [2]: 24.5
- luciferase induction, in vitro T cell activation assay; short cassette DPP (linker designed to disrupt antigen processing) (relative to uninfected controls) [2]: 0.9
- luciferase induction, in vitro T cell activation assay; short cassette RR (relative to uninfected controls) [2]: 21.7
